Results on three molecules are retold here after paper PMC8896794 (Science Advances, 2022).

Assay [1] addresses T1, full-length mouse TSHR on DAP.3 cells (mTSHR alone) (Mus musculus, UniProt P47750).
T1 construct: thyroid-stimulating hormone receptor, mouse, cDNA NM_011648.5, full length
In words: flow cytometry on cells; DAP.3 cells stably expressing mTSHR alone or mTSHR and I-A^k stained with K1-18 mAb; DAP.3 parental cells as control.

Assay [2] deals with T2, full-length mouse TSHR with I-A^k on DAP.3 cells (Mus musculus; I-Ak, UniProt P47750;P01910;P06343).
T2 construct: thyroid-stimulating hormone receptor, mouse, cDNA NM_011648.5, full length; mouse MHC class II I-A^k alpha chain, cDNA V00832.1; mouse MHC class II I-A^k beta chain, cDNA M13538.1; co-expressed in one cell; also called mTSHR + I-A^k; mTSHR and I-A^k; copies: + +
Described as above.

The target of assay [3] is T3, human TSHR extracellular domain complexed with HLA-DP5 (Homo sapiens; HLA-DPA1*02:02/DPB1*05:01, UniProt P16473;IMGT, strain).
T3 construct: human TSHR extracellular domain (ECD), residues 22 to 282; the ECD has no membrane anchor of its own and is seen on the cell surface with HLA-DP5; also called TSHR ECD with HLA-DP5; TSHR ECD/HLA-DP complex; source: HEK293T, co-transfected (pME18S), on cells; not shown: Flag, N-terminal, kept; copies: + +
In words: flow cytometry on cells; HEK293T cells transfected with TSHR or TSHR ECD with or without HLA-DP (pME18S, with GFP), incubated with the human anti-TSHR mAb, then APC-conjugated anti-human IgG; FACSCalibur; MFI minus that of GFP-negative cells.

Assay [4] addresses T4, full-length human TSHR complexed with HLA-DP5 (HLA-DPA1*02:02/HLA-DPB1*05:01) (Homo sapiens; …, UniProt P16473;IMGT, strain).
T4 construct: thyroid-stimulating hormone receptor (TSHR), human, cDNA AY429111.1, full length; co-expressed in one cell; also called TSHR with HLA-DP5; TSHR/HLA-DP5 complex; source: HEK293T, co-transfected (pME18S), on cells; copies: + +
Described as above.

Assay [5] has as its target T5, full-length human thyroid-stimulating hormone receptor, transfected alone (Homo sapiens, UniProt P16473).
T5 construct: thyroid-stimulating hormone receptor (TSHR), human, cDNA AY429111.1, full length; no MHC class II co-transfected; also called TSHR; human TSHR; source: HEK293T, transfected (pME18S), on cells
The description is as above.

The target in assay [6] is T6, full-length human TSHR cotransfected with HLA-DP4 (HLA-DPA1*01:03/HLA-DPB1*04:01) (Homo sapiens; HLA-DPA1*01:03/DPB1*04:01, UniProt P16473;IMGT, strain).
T6 construct: thyroid-stimulating hormone receptor (TSHR), human, cDNA AY429111.1, full length; co-expressed in one cell; also called TSHR with HLA-DP4; source: HEK293T, co-transfected (pME18S), on cells; copies: + +
The description is as above.

Another assay deals with T7, porcine TSHR (Sus scrofa, UniProt Q8SPP9).
T7 construct: thyroid-stimulating hormone receptor, porcine, cDNA NM_214297.1; also called pTSHR; source: HEK293T, transfected (with GFP), on cells
The assay can be described thus: flow cytometry on cells; HEK293T cells transfected with pTSHR and GFP, mixed with PBS or purified mouse serum IgGs, washed, stained with M22 mAb, then APC-conjugated anti-human IgG.

Where a chain is given by its changes, count along the chain named.

T2 sequence (P47750 22-764, chain 1 of 3): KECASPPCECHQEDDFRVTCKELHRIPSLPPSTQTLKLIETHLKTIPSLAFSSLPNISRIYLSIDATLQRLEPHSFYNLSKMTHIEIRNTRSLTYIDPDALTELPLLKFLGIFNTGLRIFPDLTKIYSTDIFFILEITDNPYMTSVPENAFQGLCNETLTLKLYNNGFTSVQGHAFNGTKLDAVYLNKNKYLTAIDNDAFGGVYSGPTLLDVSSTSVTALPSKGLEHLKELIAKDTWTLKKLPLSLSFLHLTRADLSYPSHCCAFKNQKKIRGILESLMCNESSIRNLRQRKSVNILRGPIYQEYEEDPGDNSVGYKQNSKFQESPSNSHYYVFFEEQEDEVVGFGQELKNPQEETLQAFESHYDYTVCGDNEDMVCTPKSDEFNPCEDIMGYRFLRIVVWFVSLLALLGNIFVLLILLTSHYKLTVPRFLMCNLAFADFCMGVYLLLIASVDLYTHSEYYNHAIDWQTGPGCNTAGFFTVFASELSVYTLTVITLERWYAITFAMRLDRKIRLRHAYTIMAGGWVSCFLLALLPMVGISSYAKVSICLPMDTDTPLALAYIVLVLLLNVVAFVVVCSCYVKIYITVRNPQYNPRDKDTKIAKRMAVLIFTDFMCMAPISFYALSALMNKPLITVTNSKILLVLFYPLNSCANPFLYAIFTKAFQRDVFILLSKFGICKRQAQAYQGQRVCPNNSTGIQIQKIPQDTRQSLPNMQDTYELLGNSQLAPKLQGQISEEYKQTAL
T2 sequence (P01910 24-256, chain 2 of 3): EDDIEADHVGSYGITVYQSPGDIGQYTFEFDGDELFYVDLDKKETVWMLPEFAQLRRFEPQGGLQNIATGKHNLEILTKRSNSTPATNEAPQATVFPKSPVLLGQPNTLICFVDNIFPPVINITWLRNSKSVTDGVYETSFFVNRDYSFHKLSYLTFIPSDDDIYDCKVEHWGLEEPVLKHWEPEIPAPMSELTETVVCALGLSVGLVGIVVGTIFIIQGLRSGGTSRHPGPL
T2 sequence (P06343 28-263, chain 3 of 3): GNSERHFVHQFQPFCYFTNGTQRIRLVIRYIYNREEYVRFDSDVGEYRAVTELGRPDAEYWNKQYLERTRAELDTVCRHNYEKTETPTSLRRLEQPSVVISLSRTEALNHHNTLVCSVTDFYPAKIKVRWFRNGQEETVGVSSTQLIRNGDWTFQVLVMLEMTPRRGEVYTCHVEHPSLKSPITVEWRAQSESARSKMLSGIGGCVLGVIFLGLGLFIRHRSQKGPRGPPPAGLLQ
T1 sequence (P47750 22-764): as the sequence (P47750 22-764, chain 1 of 3) above
T7 sequence (Q8SPP9 22-764): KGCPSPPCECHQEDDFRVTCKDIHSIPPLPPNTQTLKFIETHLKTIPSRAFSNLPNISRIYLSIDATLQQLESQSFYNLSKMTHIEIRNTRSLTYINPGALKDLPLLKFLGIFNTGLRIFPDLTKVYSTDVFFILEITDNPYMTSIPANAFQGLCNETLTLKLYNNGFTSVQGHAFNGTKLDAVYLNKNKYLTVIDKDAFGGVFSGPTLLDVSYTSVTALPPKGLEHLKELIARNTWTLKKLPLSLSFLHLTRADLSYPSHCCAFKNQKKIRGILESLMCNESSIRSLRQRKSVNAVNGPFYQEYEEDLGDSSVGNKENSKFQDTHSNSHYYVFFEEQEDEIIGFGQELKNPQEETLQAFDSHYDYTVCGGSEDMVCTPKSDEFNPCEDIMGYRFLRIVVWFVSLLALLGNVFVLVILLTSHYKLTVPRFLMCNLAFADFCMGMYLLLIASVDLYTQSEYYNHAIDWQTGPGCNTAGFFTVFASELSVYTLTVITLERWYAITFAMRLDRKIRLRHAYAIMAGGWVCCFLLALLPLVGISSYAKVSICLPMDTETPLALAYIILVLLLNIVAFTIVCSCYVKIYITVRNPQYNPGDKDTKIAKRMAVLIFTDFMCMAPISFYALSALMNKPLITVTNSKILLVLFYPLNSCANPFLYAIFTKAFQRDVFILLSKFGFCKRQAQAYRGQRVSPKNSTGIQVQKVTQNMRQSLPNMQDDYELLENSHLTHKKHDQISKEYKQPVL

B1: K1-18 monoclonal antibody, wild type (antibody, V domains shown)
VH: EVQLVQSGAEVKKPGESLKISCKGSGYSFTNYWIGWVRQMPGKGLEWMGIIYPYDSDTRYSPSFEGQVTISADKSIRTAYLHWSSLKASDTAMYYCVRPRDGSYPYDAFDIWGQGTMVTVSS
VL: EIVLTQSPGTLSLSPGERATLSCRASQSVSNNYLAWYQQKPGQAPRLLIYGASSRATGIPDRFSGSGSGTDFTLTISRLEPEDFAVYYCQHCGSSLRAFGQGTKVEIK
notes: constant region of the λ chain is not described; IgG1; thyroid-stimulating autoantibody (TRAb) from a Graves' disease patient; also called WT K1-18; K1-18 mAb; source: recombinant, V regions synthesized and cloned into pME18S expression vectors
B1: the binding result in assay [1], in assay [2], in assay [3] and in assay [4] was “binds” each time.

B2: germlined K1-18 monoclonal antibody (antibody, V domains shown)
VH: B1 VH with N31S, Y54G, V97A
VL: B1 VL with N31S, N32S
notes: constant region of the λ chain is not described; IgG1; also called germlined K1-18 mAb; source: recombinant, mutated from wild-type K1-18 V regions (QuikChange), pME18S expression vectors
As to B2, the binding result is reported as “no binding” in assay [5], “binds” in assay [4] and “no binding” in assay [6].

B3: M22 thyroid-stimulating monoclonal antibody (antibody, V domains shown)
VH: QVQLVQSGAEVKKPGESLKISCRGSGYRFTSYWINWVRQLPGKGLEWMGRIDPTDSYTNYSPSFKGHVTVSADKSINTAYLQWSSLKASDTGMYYCARLEPGYSSTWSVNWGQGTLVTVSS
VL: LTVLTQPPSVSGAPRQRVTISCSGNSSNIGNNAVNWYQQLPGKAPKLLIYYDDQLPSGVSDRFSGSRSGTSASLAIRGLQSEDEADYYCTSWDDSLDSQLFGGGTRLTVL
notes: constant region of the λ chain is not described; IgG1; also called M22 mAb; source: recombinant, V regions synthesized and cloned into pME18S expression vectors
For the molecule B3, the binding result with porcine TSHR is given as “binds”.
